Reference: publication PMC8247599

Assays:
Khc-FL = Khc-FL (Drosophila melanogaster, UniProt P17210 1-975); experiment: EMSA
Khc 855-941 = Khc 855-941 (Drosophila melanogaster, UniProt P17210 855-941); experiment: EMSA
Chain of Khc 855-941 (P17210 855-941): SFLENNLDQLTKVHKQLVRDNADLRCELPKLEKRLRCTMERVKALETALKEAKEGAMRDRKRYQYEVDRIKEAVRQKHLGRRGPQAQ

Chain of Khc-FL (P17210 whole entry): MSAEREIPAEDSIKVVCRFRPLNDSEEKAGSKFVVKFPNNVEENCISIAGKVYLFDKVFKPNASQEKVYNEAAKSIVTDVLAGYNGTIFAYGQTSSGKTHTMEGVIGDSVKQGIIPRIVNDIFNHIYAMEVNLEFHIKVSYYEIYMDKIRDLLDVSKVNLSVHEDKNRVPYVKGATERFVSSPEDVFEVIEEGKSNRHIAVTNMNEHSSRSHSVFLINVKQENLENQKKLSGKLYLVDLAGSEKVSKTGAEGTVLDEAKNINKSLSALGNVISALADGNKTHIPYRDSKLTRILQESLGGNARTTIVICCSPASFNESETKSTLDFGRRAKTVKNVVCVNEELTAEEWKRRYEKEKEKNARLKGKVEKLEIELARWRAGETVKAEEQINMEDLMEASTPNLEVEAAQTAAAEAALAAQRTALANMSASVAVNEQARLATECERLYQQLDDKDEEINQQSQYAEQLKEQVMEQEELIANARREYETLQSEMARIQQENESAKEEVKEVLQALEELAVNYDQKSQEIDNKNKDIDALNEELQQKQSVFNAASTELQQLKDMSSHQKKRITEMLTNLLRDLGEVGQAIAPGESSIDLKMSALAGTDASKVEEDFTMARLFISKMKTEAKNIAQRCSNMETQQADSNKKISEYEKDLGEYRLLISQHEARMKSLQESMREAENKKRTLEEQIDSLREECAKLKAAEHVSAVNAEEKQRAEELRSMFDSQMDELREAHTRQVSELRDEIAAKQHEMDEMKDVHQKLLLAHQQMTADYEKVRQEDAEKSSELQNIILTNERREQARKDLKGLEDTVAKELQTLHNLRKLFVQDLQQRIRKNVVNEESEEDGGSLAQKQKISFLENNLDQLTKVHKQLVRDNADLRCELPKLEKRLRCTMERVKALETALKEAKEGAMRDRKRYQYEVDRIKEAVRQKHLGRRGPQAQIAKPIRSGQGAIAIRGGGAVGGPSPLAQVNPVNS

## UUUUUUUUUUUUUUUUUUUUUUUUU (ssRNA) [oligo-(U25) RNA]
Khc-FL
  binding result: binds
Khc 855-941
  binding result: binds
